What was measured:
[1] = biological target: T1, cynomolgus PRLR ECD (cynomolgus, UniProt A0A2K5WXK1 25-234); assay: Biacore SPR, antibody covalently immobilized on CM4 chip, PRLR ECD 111 to 1.37 nM
T1 construct: extracellular domain; also called Cyno PRLR
T1 sequence: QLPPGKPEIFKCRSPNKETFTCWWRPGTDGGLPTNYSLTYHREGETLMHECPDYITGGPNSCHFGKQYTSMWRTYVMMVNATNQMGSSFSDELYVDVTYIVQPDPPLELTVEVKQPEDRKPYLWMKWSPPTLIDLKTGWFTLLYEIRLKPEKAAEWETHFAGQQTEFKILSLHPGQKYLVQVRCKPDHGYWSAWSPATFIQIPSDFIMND

[2] = biological target: T2, recombinant extracellular domain (ECD) of the human prolactin receptor (PRLR) (human, UniProt P16471 25-234); assay: as above
T2 construct: also called PRLR ECD; Human PRLR; not shown: His tag
T2 sequence: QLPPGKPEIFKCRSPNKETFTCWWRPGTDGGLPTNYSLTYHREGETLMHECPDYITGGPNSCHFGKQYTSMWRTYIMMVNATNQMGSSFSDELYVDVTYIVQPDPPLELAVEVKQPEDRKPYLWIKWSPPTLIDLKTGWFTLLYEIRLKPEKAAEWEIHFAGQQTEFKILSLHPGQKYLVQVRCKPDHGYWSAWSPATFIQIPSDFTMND

[3] = biological target: T1, cynomolgus PRLR ECD; assay: Biacore SPR, antibody captured on Protein A/G, kinetic titration of PRLR ECD, 1:1 Langmuir
Procedure: (§1) Affinity of the chimerized and Human Engineered™ antibodies determined by Biacore analysis. Briefly, a CM5 sensor chip (Biacore) immobilized with Protein A/G (Pierce) via NHS/EDC was used to capture approximately 600 RU of antibody on the chip surface. Five concentrations of PRLR ECD beginning at 5 ug/mL (185 nM) and serially diluted at 5× dilution to 0.3 nM were injected from lowest to highest concentration in the kinetic titration injection mode, and 15 minutes of dissociation data was collected. The experiments were double-referenced, i.e. an adjacent flow cell response was subtracted automatically, and the response from a buffer injection experiment was subtracted from the experimental data set. Kinetic and derived parameters (kₐ, kd and KD) were determined by fitting to a 1:1 Langmuir model using BiaEval software customized to the kinetic titration injection mode. Affinity measurements of both chimeric and all Human Engineered™ antibodies against human and cynomolgus PRLR ECD are summarized in Table 9 and Table 10.

[4] = biological target: T2, recombinant extracellular domain (ECD) …; assay: as above
Procedure: as §1

[5] = biological target: T3, murine PRLR ECD (mouse, UniProt Q08501 20-229); assay: Biacore SPR, antibody covalently immobilized on CM4 chip, PRLR ECD 111 to 1.37 nM; same run as N2: antibody covalently immobilized on CM4, PRLR ECD 111 to 1.37 nM; very weak fitted binding
T3 construct: extracellular domain; also called Mouse PRLR
T3 sequence (looked up): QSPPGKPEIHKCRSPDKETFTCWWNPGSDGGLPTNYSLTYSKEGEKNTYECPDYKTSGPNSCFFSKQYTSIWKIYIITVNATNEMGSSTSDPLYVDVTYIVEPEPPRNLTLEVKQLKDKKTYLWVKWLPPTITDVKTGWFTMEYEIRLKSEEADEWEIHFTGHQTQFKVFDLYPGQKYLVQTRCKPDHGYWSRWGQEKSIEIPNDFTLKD
Procedure: (§2) In order to compare rat and mouse cross reactivity using covalently immobilized antibodies, a CM4 chip was coupled with he.06.642-2 and he.06.275-4 antibodies via standard EDC-NHS amine coupling chemistries according to the recommended protocol from Biacore® Inc. The PRLR ECD injections were performed at five concentrations in a three fold titration series starting at 111 nM and going down to 1.37 nM. Regeneration was performed with Glycine pH3.0. The affinity of all of the HE variants of XHA.06.642 and XHA.06.275 are very similar to the affinity of the parental chimeric antibody. Antibody he.06.642-2 binds to human, mouse and rat PRLR with equivalent affinity.

[6] = biological target: T3, murine PRLR ECD; assay: Biacore SPR, antibody covalently immobilized on CM4 chip, PRLR ECD 111 to 1.37 nM; same run as N2: KD about 17.6 uM, far above the top concentration of 111 nM, which the text calls not binding effectively
Procedure: as §2

[7] = biological target: T4, rat PRLR ECD (rat, UniProt P05710 20-229); assay: Biacore SPR, antibody covalently immobilized on CM4 chip
T4 construct: extracellular domain
T4 sequence (looked up): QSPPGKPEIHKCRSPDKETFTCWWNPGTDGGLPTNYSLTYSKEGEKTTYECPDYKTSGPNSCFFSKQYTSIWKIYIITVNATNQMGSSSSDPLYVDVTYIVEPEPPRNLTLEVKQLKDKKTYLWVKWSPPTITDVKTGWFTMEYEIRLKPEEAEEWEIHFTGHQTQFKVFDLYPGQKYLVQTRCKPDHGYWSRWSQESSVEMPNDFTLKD
Procedure: as §2

B1: he.06.275-4 (antibody, V domains shown)
VH: QVQLQESGPGLVKPSQTLSLTCTVSGYSITSDYAWNWIRQFPGKGLEWMGYISYSGSTSYNPSLKSRITISRDTSKNQFSLQLNSVTAADTAVYFCARDYGYVFDYWGQGTTLTVSS
VL: DVQITQSPSSLSASPGDRITLTCRASKNIYKYLAWYQEKPGKANKLLIYSGSTLHSGIPSRFSGSGSGTDFTLTISSLQPEDFAMYYCQQHNDYPYTFGQGTKLEIK
notes: Human Engineered
Kd [1]: 6.4 nM
Kd [2]: 1.3 nM
Kd [3]: 1.7 nM
Kd [4]: 0.52 nM
koff [5]: 0.037 s⁻¹
kon [5]: 2100 M⁻¹ s⁻¹
Kd [6]: 17600 nM
binding result [7]: no binding (tested: PRLR ECD up to 111 nM)
